Experimental data as given in PMC9583936 (Biochemistry, 2022).
Read-outs that look alike come from different tables or passages of the source. *1 amine or outer side, *2 acyl side, *3 side chain or, on linkers, in order; H or OH if unused. Where no end group is shown, it is not given here. [ ]: non-standard residue; d: D form. Leu(4-F) = γ-19F-leucine (4-fluoro-leucine), CC(C)(F)C[C@H](N[*:1])C(=O)[*:2]; Phe(4-F) = N[C@@H](Cc1ccc(F)cc1)C(=O)O

B1: 4-19F-Phe23 labeled ETM (transmembrane domain of the SARS-CoV-2 envelope protein, residues 8-38) (peptide)
peptide: ETGTLIVNSVLLFLA[Phe(4-F)]VVFLLVTLAILTALR-NH2
modifications: N-terminus assumed
SMILES: CC[C@H](C)[C@H](NC(=O)[C@H](C)NC(=O)[C@H](CC(C)C)NC(=O)[C@@H](NC(=O)[C@@H](NC(=O)[C@H](CC(C)C)NC(=O)[C@H](CC(C)C)NC(=O)[C@H](Cc1ccccc1)NC(=O)[C@@H](NC(=O)[C@@H](NC(=O)[C@H](Cc1ccc(F)cc1)NC(=O)[C@H](C)NC(=O)[C@H](CC(C)C)NC(=O)[C@H](Cc1ccccc1)NC(=O)[C@H](CC(C)C)NC(=O)[C@H](CC(C)C)NC(=O)[C@@H](NC(=O)[C@H](CO)NC(=O)[C@H](CC(N)=O)NC(=O)[C@@H](NC(=O)[C@@H](NC(=O)[C@H](CC(C)C)NC(=O)[C@@H](NC(=O)CNC(=O)[C@@H](NC(=O)[C@@H](N)CCC(=O)O)[C@@H](C)O)[C@@H](C)O)[C@@H](C)CC)C(C)C)C(C)C)C(C)C)C(C)C)C(C)C)[C@@H](C)O)C(=O)N[C@@H](CC(C)C)C(=O)N[C@H](C(=O)N[C@@H](C)C(=O)N[C@@H](CC(C)C)C(=O)N[C@@H](CCCNC(=N)N)C(N)=O)[C@@H](C)O
B2: γ-19F-Leu18 labeled ETM (transmembrane domain of the SARS-CoV-2 envelope protein, residues 8-38) (peptide)
peptide: Ac-ETGTLIVNSV[Leu(4-F)]LFLAFVVFLLVTLAILTALR-NH2
SMILES: CC[C@H](C)[C@H](NC(=O)[C@H](C)NC(=O)[C@H](CC(C)C)NC(=O)[C@@H](NC(=O)[C@@H](NC(=O)[C@H](CC(C)C)NC(=O)[C@H](CC(C)C)NC(=O)[C@H](Cc1ccccc1)NC(=O)[C@@H](NC(=O)[C@@H](NC(=O)[C@H](Cc1ccccc1)NC(=O)[C@H](C)NC(=O)[C@H](CC(C)C)NC(=O)[C@H](Cc1ccccc1)NC(=O)[C@H](CC(C)C)NC(=O)[C@H](CC(C)(C)F)NC(=O)[C@@H](NC(=O)[C@H](CO)NC(=O)[C@H](CC(N)=O)NC(=O)[C@@H](NC(=O)[C@@H](NC(=O)[C@H](CC(C)C)NC(=O)[C@@H](NC(=O)CNC(=O)[C@@H](NC(=O)[C@H](CCC(=O)O)NC(C)=O)[C@@H](C)O)[C@@H](C)O)[C@@H](C)CC)C(C)C)C(C)C)C(C)C)C(C)C)C(C)C)[C@@H](C)O)C(=O)N[C@@H](CC(C)C)C(=O)N[C@H](C(=O)N[C@@H](C)C(=O)N[C@@H](CC(C)C)C(=O)N[C@@H](CCCNC(=N)N)C(N)=O)[C@@H](C)O

Tests used:
[1] = target: the molecule itself; assay: 19F solid-state NMR CODEX
[2] = target: the molecule itself; assay: 19F solid-state NMR CODEX; remark: listed apart in the source

Protein	stoichiometry N [1]	stoichiometry N [2]
B1	5	–
B2	5	–
ETGTLIVNSVLL[Phe(4-F)]LAFVVFLLVTLAILTALR [4-19F-Phe20 labeled ETM (transmembrane domain of the SARS-CoV-2 envelope protein)]	–	5
